Measurements as given in article PMC7834092.

Molecular target: Eno_(N-Strep), N-terminally Strep-tagged enolase encoded at its native locus (Bacillus subtilis), P37869
Assay: pull-down
Conditions: remark: other sources report otherwise

Chain of Eno_(N-Strep), N-terminally Strep-tagged enolase encoded at its native locus (Bacillus subtilis), P37869 (P37869 whole entry): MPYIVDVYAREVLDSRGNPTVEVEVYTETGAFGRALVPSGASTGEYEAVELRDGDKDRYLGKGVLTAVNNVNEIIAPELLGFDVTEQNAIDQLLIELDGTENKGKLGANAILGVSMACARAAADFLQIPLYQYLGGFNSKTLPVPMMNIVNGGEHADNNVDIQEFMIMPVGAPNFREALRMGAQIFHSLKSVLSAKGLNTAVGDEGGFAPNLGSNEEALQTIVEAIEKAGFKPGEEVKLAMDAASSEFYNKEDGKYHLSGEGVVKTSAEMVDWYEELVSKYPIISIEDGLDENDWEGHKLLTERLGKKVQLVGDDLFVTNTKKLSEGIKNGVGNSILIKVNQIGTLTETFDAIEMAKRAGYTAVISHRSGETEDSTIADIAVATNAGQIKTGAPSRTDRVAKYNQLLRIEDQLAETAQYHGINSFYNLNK

B1: RNase Y (native) of B. subtilis, O31774 1-520 (enzyme)
chain: MTPIMMVLISILLILLGLVVGYFVRKTIAEAKIAGARGAAEQILEDAKRDAEALKKEALLEAKDEIHKLRIDAEQEVRERRNELQKQENRLLQKEENLDRKHEGIDKREAMLEKKDHSLNERQQHIEEMESKVDEMIRMQQSELERISSLTRDEAKQIILERVENELSHDIAIMTKETENRAKEEADKKAKNILSLALQRCAADHVAETTVSVVNLPNDEMKGRIIGREGRNIRTLETLTGIDLIIDDTPEAVILSGFDPIRRETARIALDKLVQDGRIHPARIEEMVEKSRREVDDYIREMGEQTTFEVGVHGLHPDLIKILGRLKFRTSYGQNVLKHSMEVAFLAGLMASELGEDAKLAKRAGLLHDIGKAIDHEVEGSHVEIGVELATKYKEHPVVINSIASHHGDEEPTSIIAVLVAAADALSAARPGARSETLENYIRRLEKLEEISESYEGVEKSFAIQAGREVRIMVKPDSINDLEAHRLARDIRKRIEDELDYPGHIKVTVIRETRAVEYAK
With B1 the less RNase Y co-eluted after RNase A treatment of the extract was 20 to 30%.
